Reference: article PMC9687583

Molecular target: T1, Human C-C motif ligand 16 (CCL16) (human), O15467
T1 chain: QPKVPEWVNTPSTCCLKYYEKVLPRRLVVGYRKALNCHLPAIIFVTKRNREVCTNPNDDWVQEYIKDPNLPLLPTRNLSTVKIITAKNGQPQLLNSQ
Assay: SEC; HiLoad 26/60 Superdex 75 pg; 50 mM sodium dihydrogen phosphate, 500 mM sodium chloride, 10% (v/v) glycerol, pH 8.0; apparent mass after calibration with standard proteins in the same buffer
Details: remark: other sources report otherwise

B1: Human C-C motif ligand 16 (CCL16), O15467 24-120 (natural protein)
chain: QPKVPEWVNTPSTCCLKYYEKVLPRRLVVGYRKALNCHLPAIIFVTKRNREVCTNPNDDWVQEYIKDPNLPLLPTRNLSTVKIITAKNGQPQLLNSQ
modifications: here or on the partner: two intramolecular disulphide bonds (confirmed by CE-MS and electron density); two intramolecular disulphide bonds (confirmed by CE-MS and electron density)
Work on B1 yielded a stoichiometry N of 2.
